Experimental data: the supplement of paper PMC10567573
± gives the standard deviation.

Assay: protein stability index of a GFP-peptide fusion (GPS, HEK-293T) (PSI 1-6); higher = more stable
[1] = treatment: DMSO, c terminus: a fixed tail appended
[2] = treatment: MLN4924 1 uM, 8 h, c terminus: a fixed tail appended
[3] = treatment: DMSO, c terminus: native
[4] = treatment: MLN4924 1 uM, 8 h, c terminus: native
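Also: 24-mer peptide tiles fused after GFP, lentivirally expressed, FACS-sorted into six equal bins by GFP/DsRed ratio, decoded by Illumina sequencing, PSI is the read-weighted mean bin number.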

Sequence | protein stability index [1] | protein stability index [2] | protein stability index [3] | protein stability index [4]
EGYTPLMEAAREGHEEMVALLLGQ [ANKRD17] | 4.07 ± 0.32 | 4.07 ± 0.22 | – | –
QFLGFSWIFVNLTVRFCILGKESF [HACD3] | 3.49 ± 0.52 | 3.25 ± 0.16 | – | –
ERHTMDLTVEGFQSWMWRGLTFLL [TMEM120A] | 2.11 ± 0.41 | 2.28 ± 0.092 | – | –
VVHVSFPEVTSALLESLNQQRLQG [ZBTB22] | 2.27 ± 0.28 | 2.41 ± 0.21 | – | –
SKPCDLHCTTVDGQRQLMVPARDG [ADAMTSL2] | 4.33 ± 0.11 | 4.37 ± 0.36 | – | –
HKRISAFRALQHSYLHKDEGNPE [CDK4] | – | – | 4.15 ± 0.26 | 4.04 ± 0.47
DVVCKNQDELRNRSVKVICLGSLA [FAN1] | 2.72 ± 0.26 | 2.98 ± 0.2 | – | –
IGSCVTNPCGPRSRCGPCNTFGY [KRT33B] | – | – | 2.9 ± 0.28 | 2.97 ± 0.34
MEKIPFVLGGNLQGGELVVAYPYD [CPXM2] | 2.81 ± 0.48 | 2.79 ± 0.77 | – | –
NPEEYNLDEPNAESDYTYSSSYEQ [SRPK2] | 5.52 ± 0.19 | 5.46 ± 0.25 | – | –
HHLGSGSGAGGTGGPAGQAGRGGA [MYOZ1] | 4.9 ± 0.35 | 5.01 ± 0.33 | – | –
IFCLHGGLSPSIDTLDHIRALDRL [PPP2CA] | 2.29 ± 0.59 | 2.21 ± 0.17 | – | –
FGHLINGAIAVFVYASDKEWIRFD [PTGFR] | 3.1 ± 0.29 | 3.1 ± 0.38 | – | –
AWNPEDRSLNVFVKDDDRLTFHRH [SPSB4] | 3.65 ± 0.27 | 3.76 ± 0.19 | – | –
SPLCLIPMVTSPREEQQLLASTSK [KCTD13] | 4.1 ± 0.29 | 4.37 ± 0.06 | – | –
AQQIRLHHFNSSHLEIDDMYTPAY [MYORG] | 2.86 ± 0.26 | 2.91 ± 0.21 | – | –
EDDAQSRRDEQDDDDKGDSKETRL [GOLPH3] | 5.54 ± 0.21 | 5.66 ± 0.17 | – | –
VLIVDWDVHHGQGTQFTFDQDPSV [HDAC6] | 2.32 ± 0.42 | 2.13 ± 0.049 | – | –
SGRARQQDEEMLELPAPAEVAAKN [MLH1] | 5.52 ± 0.29 | 5.2 ± 0.17 | – | –
GEKPFTCHECGKKFSQNSHLIKHR [ZNF75A] | 3.44 ± 0.35 | 3.9 ± 0.56 | – | –
RRLKQAKEEAQAEIEQYRLQREKE [ATP6V1G1] | 5.47 ± 0.33 | 5.38 ± 0.25 | – | –
IENYKKQTRNGLGKDHEILRRRIE [FUT8] | 3.67 ± 0.24 | 3.87 ± 0.24 | – | –

Sequence | protein stability index [1] | protein stability index [2] | protein stability index [3] | protein stability index [4]
PDSVPSLQNMGLLLDKLAKENQDI [PBXIP1] | 4.48 ± 0.18 | 4.42 ± 0.15 | – | –
LRRVLDELTLSKTDLEMQIESLNE [KRT13] | 3.12 ± 0.098 | 2.98 ± 0.068 | – | –
GAIFCPPCYDVRYAPSCAKCKKKI [PDLIM7] | 3.16 ± 0.24 | 3.45 ± 0.34 | – | –
IFHSRTSLQKLSTKLSAQSAQYSQ [FCHSD1] | 2.91 ± 0.17 | 2.98 ± 0.34 | – | –
LLTNNSGTPKDHDSPENGADSFES [ETS2] | 5.2 ± 0.26 | 5.22 ± 0.12 | – | –
TKVVYLASETFNYSAIDRVKSRGK [PI4K2A] | 2.85 ± 0.18 | 3.17 ± 0.31 | – | –
KRPAWGSRRFEAVGWWALLALVTL [POMT2] | 2.64 ± 0.71 | 2.29 ± 0.24 | – | –
SGSRVRVGFRLCNSTGGDCFYRGY [SCNN1D] | 2.18 ± 0.21 | 2.38 ± 0.49 | – | –
FGIKCAKCQVGFSSSDLVMRARDS [ISL2] | 2.37 ± 0.32 | 2.54 ± 0.58 | – | –
ERLNKEYQEIFQQLQRSWVKMDQK [TRIM43] | 3.23 ± 0.3 | 3.39 ± 0.55 | – | –
VFLIIYYLDPSVLSGVSCFVMFLC [ARL6IP1] | 2.64 ± 0.29 | 2.91 ± 0.91 | – | –
LKEPLHKALQMLLSQPVTYQAFRE [BCL2L13] | 2.76 ± 0.085 | 2.77 ± 0.4 | – | –
CHCLKGFTLNPDKKTCRRINYCAL [MATN2] | 2.5 ± 0.24 | 2.14 ± 0.18 | – | –
KPGPITLTVAKCWDPSPRGCFTLP [DVL3] | 2.41 ± 0.32 | 2.59 ± 0.11 | – | –
LKSELGRKWHKASNYIFVAIFWIV [P2RY14] | 2.24 ± 0.61 | 2.31 ± 0.19 | – | –
PDQLPQNNTLVALPIVAIENILSF [FBXO28] | 2.34 ± 0.24 | 2.38 ± 0.27 | – | –
HRKRGSQPPDMASALTDRTSRAPS [RSPH3] | 4.89 ± 0.17 | 4.95 ± 0.18 | – | –
EEKAFESVIEPVQESSFRSRKIAV [MIA2] | 4.31 ± 0.16 | 4.11 ± 0.22 | – | –
YIATQGSLPETFGDFWRMIWEQRS [PTPRD] | 2.21 ± 0.21 | 2.5 ± 0.55 | – | –
GPWSCENFNPLLVAGGVAVAAIAL [CEND1] | 3.34 ± 0.4 | 2.58 ± 0.9 | – | –
GKGFRDRNVTGTPLTGDKDDEEVD [ADAMTSL2] | 5.59 ± 0.21 | 5.51 ± 0.34 | – | –
KLFDDCTQQFKAEKLKEKLKMKER [PPP2R5C] | 3.43 ± 0.14 | 3.71 ± 0.15 | – | –

Sequence | protein stability index [1] | protein stability index [2] | protein stability index [3] | protein stability index [4]
QDDLENPMLETASKLLLSGTADGA [ANKRD17] | 5.14 ± 0.33 | 5.2 ± 0.36 | – | –
NPYTELLVLKAHHDIVRFLVQLDD [WDR41] | 2.84 ± 0.39 | 2.65 ± 0.35 | – | –
PEVTSALLESLNQQRLQGQLCDVS [ZBTB22] | 3.57 ± 0.23 | 3.65 ± 0.35 | – | –
PWVYILLRKAVLKNLYKLASQCCG [PTGFR] | 2.09 ± 0.26 | 2.22 ± 0.45 | – | –
GKPLAGIYRKREEKRNAGNAVRSA [KMT5A] | 4.24 ± 0.35 | 4.39 ± 0.19 | – | –
FFFLRMDENYNLLPHGVNFQDAIF [CCDC3] | 2.79 ± 0.43 | 2.97 ± 0.76 | – | –
QKENVFKCDSLKEECIPEHMVRES [FAN1] | 4.56 ± 0.38 | 4.56 ± 0.19 | – | –
MIHGRSVLHIVASLIILHLSGATK [NETO1] | 3.03 ± 0.24 | 3.02 ± 0.54 | – | –
GGRRPGTSPALLQGTAEEDHVDLS [CDKN1A] | 5.46 ± 0.23 | 5.33 ± 0.18 | – | –
ELREACDYLCISFEYSTIKCRDLS [BTBD10] | 3.06 ± 0.21 | 3.13 ± 1 | – | –
ISDFGRQQLLPPFPSLHQSLPQNQ [EHMT1] | 3.45 ± 0.14 | 3.28 ± 0.23 | – | –
YQKILAGKIDFPRHLDFHVKDLIK [PRKX] | 2.19 ± 0.97 | 2.1 ± 0.4 | – | –
PLDILAQPLEASNPALEGLTQPLQ [DNAAF3] | 4.9 ± 0.28 | 4.78 ± 0.16 | – | –
YGLPIMVTLMVAKWTGDFFNKGIY [CLCN6] | 2.98 ± 0.25 | 3.4 ± 0.42 | – | –
KAQLPRRESERRNHSLARHADILA [FBXO28] | 3.85 ± 0.11 | 3.96 ± 0.14 | – | –
QFVSSVPRCDLVDLGEGKICFCCE [FAM189A2] | 2.67 ± 0.37 | 2.98 ± 0.6 | – | –
ISIVIFCLETLPEFRDDRDLVMAL [KCNA4] | 3.04 ± 0.81 | 2.84 ± 0.68 | – | –
PMLWNPSGTPKRYSLELGKAIKQK [C22orf31] | 3.59 ± 0.23 | 3.56 ± 0.14 | – | –
SPGGTLMDLSERQEVSSVRSLSST [DLC1] | 4.61 ± 0.24 | 4.85 ± 0.2 | – | –
DLSDNRNEDPLVLLAWRCTKLSLL [FBXO33] | 2.54 ± 0.38 | 2.22 ± 0.24 | – | –
GLDFLHANCIVHRDLKPENILVTS [CDK4] | 2.49 ± 0.23 | 2.61 ± 0.4 | – | –
